The supplement of paper PMC9112550, “Optimization of the antimicrobial peptide Bac7 by deep mutational scanning” (BMC Biology, 2022)

system: Escherichia coli TOP10; assay: shrunken log2 fold change of peptide-encoding DNA abundance (4.5 h post-induction vs induction); higher = less antimicrobial activity (less host growth inhibition); details: time post-induction: 4.5 h; library: site-saturation at positions 5, 18, 19, 20
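Note: peptides expressed intracellularly from a pBAD plasmid library in pooled LB shake-flask culture, induced with 0.3% L-arabinose, DNA abundance read by NGS, three biological replicates, DESeq2 with apeglm shrinkage.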

Row | Sequence | shrunken log2 fold change
1 | RRIRCRPPRLPRPRPRPGVLPRP | 0.121
2 | RRIRQRPPRLPRPRPRPYTHPRP | -0.723
3 | RRIRYRPPRLPRPRPRPSRCPRP | -0.154
4 | RRIRERPPRLPRPRPRPCTRPRP | 0.0517
5 | RRIRNRPPRLPRPRPRPLQWPRP | 0.0683
6 | RRIRFRPPRLPRPRPRPKEPPRP | -0.135
7 | RRIRMRPPRLPRPRPRPWFHPRP | -0.121
8 | RRIRCRPPRLPRPRPRPKHWPRP | 0.00902
9 | RRIRERPPRLPRPRPRPYDWPRP | -0.0444
10 | RRIRARPPRLPRPRPRPYKLPRP | -0.467
11 | RRIRSRPPRLPRPRPRPLNNPRP | -0.124
12 | RRIRSRPPRLPRPRPRPIFYPRP | -0.387
13 | RRIRARPPRLPRPRPRPFVVPRP | -0.312
14 | RRIRSRPPRLPRPRPRPNLIPRP | -0.74
15 | RRIRGRPPRLPRPRPRPTSMPRP | 0.643
16 | RRIRQRPPRLPRPRPRPTYDPRP | -0.338
17 | RRIRYRPPRLPRPRPRPNNLPRP | -0.582
18 | RRIRKRPPRLPRPRPRPDENPRP | 1.42
19 | RRIRLRPPRLPRPRPRPYCLPRP | -0.303
20 | RRIRYRPPRLPRPRPRPTGKPRP | 0.019
21 | RRIRIRPPRLPRPRPRPHQTPRP | 0.0701
22 | RRIRIRPPRLPRPRPRPWAKPRP | -0.235
23 | RRIRGRPPRLPRPRPRPIGLPRP | 0.19
24 | RRIRCRPPRLPRPRPRPKICPRP | -0.0571
25 | RRIRGRPPRLPRPRPRPKSDPRP | 0.584

Row | Sequence | shrunken log2 fold change
26 | RRIRGRPPRLPRPRPRPQSPPRP | 0.225
27 | RRIRARPPRLPRPRPRPKKIPRP | 0.489
28 | RRIRKRPPRLPRPRPRPIEKPRP | 0.694
29 | RRIRERPPRLPRPRPRPNHWPRP | -0.138
30 | RRIRGRPPRLPRPRPRPGGSPRP | 0.92
31 | RRIRIRPPRLPRPRPRPSHPPRP | -0.245
32 | RRIRIRPPRLPRPRPRPMQLPRP | 3.42
33 | RRIRIRPPRLPRPRPRPLMVPRP | -0.942
34 | RRIRQRPPRLPRPRPRPHRMPRP | -0.373
35 | RRIRFRPPRLPRPRPRPQSPPRP | -0.13
36 | RRIRRRPPRLPRPRPRPKRLPRP | 0.191
37 | RRIRGRPPRLPRPRPRPIGQPRP | 0.0805
38 | RRIRQRPPRLPRPRPRPTMLPRP | -0.339
39 | RRIRDRPPRLPRPRPRPYKAPRP | -0.0157
40 | RRIRSRPPRLPRPRPRPFYMPRP | -0.561
41 | RRIRLRPPRLPRPRPRPQMAPRP | -0.0634
42 | RRIRWRPPRLPRPRPRPAPMPRP | 0.615
43 | RRIRYRPPRLPRPRPRPGEYPRP | -0.0574
44 | RRIRARPPRLPRPRPRPQWQPRP | -0.00057
45 | RRIRERPPRLPRPRPRPNFVPRP | 0.0109
46 | RRIRWRPPRLPRPRPRPWHRPRP | -0.0473
47 | RRIRNRPPRLPRPRPRPRRNPRP | -0.03
48 | RRIRLRPPRLPRPRPRPHENPRP | 0.0369
49 | RRIRARPPRLPRPRPRPPKIPRP | 0.327
50 | RRIRWRPPRLPRPRPRPASAPRP | 0.298

Row | Sequence | shrunken log2 fold change
51 | RRIRYRPPRLPRPRPRPLLDPRP | -0.296
52 | RRIRLRPPRLPRPRPRPSQDPRP | -0.282
53 | RRIRVRPPRLPRPRPRPRPVPRP | 0.515
54 | RRIRIRPPRLPRPRPRPEYHPRP | -0.152
55 | RRIRHRPPRLPRPRPRPQWKPRP | -0.0774
56 | RRIRTRPPRLPRPRPRPNGIPRP | 0.0301
57 | RRIRGRPPRLPRPRPRPNDFPRP | -0.000929
58 | RRIRYRPPRLPRPRPRPQGLPRP | 0.0179
59 | RRIRNRPPRLPRPRPRPSGHPRP | -0.141
60 | RRIRRRPPRLPRPRPRPMEHPRP | 0.131
61 | RRIRCRPPRLPRPRPRPIKWPRP | -0.343
62 | RRIRQRPPRLPRPRPRPSVNPRP | -0.642
63 | RRIRARPPRLPRPRPRPISYPRP | -0.545
64 | RRIRFRPPRLPRPRPRPCDMPRP | -0.00291
65 | RRIRKRPPRLPRPRPRPVWIPRP | 0.0328
66 | RRIRDRPPRLPRPRPRPQFFPRP | -0.00144
67 | RRIRQRPPRLPRPRPRPGSFPRP | -0.0531
68 | RRIRERPPRLPRPRPRPMMAPRP | -0.128
69 | RRIRTRPPRLPRPRPRPHCVPRP | -0.192
70 | RRIRQRPPRLPRPRPRPQPRPRP | 0.48
71 | RRIRYRPPRLPRPRPRPTMNPRP | -0.446
72 | RRIRLRPPRLPRPRPRPEGHPRP | -0.107
73 | RRIRARPPRLPRPRPRPKPRPRP | 1.9
74 | RRIRSRPPRLPRPRPRPECQPRP | -0.00188
75 | RRIRIRPPRLPRPRPRPDRMPRP | -0.0164

Row | Sequence | shrunken log2 fold change
76 | RRIRCRPPRLPRPRPRPIPGPRP | -0.000108
77 | RRIRLRPPRLPRPRPRPRDEPRP | 0.162
78 | RRIRSRPPRLPRPRPRPQVDPRP | -0.296
79 | RRIRARPPRLPRPRPRPEWGPRP | 1.06
80 | RRIRDRPPRLPRPRPRPCQLPRP | -0.0273
81 | RRIRTRPPRLPRPRPRPSDVPRP | -0.83
82 | RRIRHRPPRLPRPRPRPCHYPRP | -0.4
83 | RRIRKRPPRLPRPRPRPWKCPRP | -0.0018
84 | RRIRERPPRLPRPRPRPEETPRP | -0.0248
85 | RRIRIRPPRLPRPRPRPMARPRP | -0.153
86 | RRIRRRPPRLPRPRPRPGIIPRP | 0.028
87 | RRIRVRPPRLPRPRPRPFRSPRP | -0.267
88 | RRIRQRPPRLPRPRPRPLTMPRP | 0.00947
89 | RRIRQRPPRLPRPRPRPWIPPRP | 0.0265
90 | RRIRKRPPRLPRPRPRPIGLPRP | 0.0815
91 | RRIRKRPPRLPRPRPRPCGMPRP | 0.858
92 | RRIRYRPPRLPRPRPRPETNPRP | 0.0266
93 | RRIRMRPPRLPRPRPRPRSQPRP | 0.108
94 | RRIRTRPPRLPRPRPRPALFPRP | 0.000901
95 | RRIRIRPPRLPRPRPRPKAFPRP | -0.122
96 | RRIRNRPPRLPRPRPRPLIGPRP | -0.0791
97 | RRIRGRPPRLPRPRPRPWNCPRP | -0.101
98 | RRIRDRPPRLPRPRPRPVTVPRP | -0.135
99 | RRIRPRPPRLPRPRPRPRRAPRP | 0.525
100 | RRIRTRPPRLPRPRPRPFFFPRP | 0.0893

Row | Sequence | shrunken log2 fold change
101 | RRIRIRPPRLPRPRPRPPINPRP | -0.305
102 | RRIRNRPPRLPRPRPRPEAQPRP | -0.0169
103 | RRIRQRPPRLPRPRPRPCSPPRP | 0.0218
104 | RRIRNRPPRLPRPRPRPFRNPRP | -0.515
105 | RRIRERPPRLPRPRPRPEQEPRP | -0.0107
106 | RRIRVRPPRLPRPRPRPAHVPRP | 0.0119
107 | RRIRRRPPRLPRPRPRPRTRPRP | 0.528
108 | RRIRFRPPRLPRPRPRPPSMPRP | 0.252
109 | RRIRNRPPRLPRPRPRPKQWPRP | 0.217
110 | RRIRSRPPRLPRPRPRPYGEPRP | -0.256
111 | RRIRVRPPRLPRPRPRPGNPPRP | -0.104
112 | RRIRWRPPRLPRPRPRPYSRPRP | -0.0788
113 | RRIRCRPPRLPRPRPRPYGDPRP | -0.217
114 | RRIRYRPPRLPRPRPRPYDMPRP | -1.35
115 | RRIRDRPPRLPRPRPRPLTPPRP | 0.128
116 | RRIRDRPPRLPRPRPRPHNYPRP | -0.423
117 | RRIRYRPPRLPRPRPRPWWTPRP | -0.333
118 | RRIRPRPPRLPRPRPRPFMAPRP | -0.305
119 | RRIRLRPPRLPRPRPRPGLCPRP | 0.234
120 | RRIRLRPPRLPRPRPRPKWPPRP | 0.279
121 | RRIRGRPPRLPRPRPRPPVEPRP | 0.608
122 | RRIRIRPPRLPRPRPRPQVTPRP | -0.4
123 | RRIRCRPPRLPRPRPRPGCRPRP | 0.569
124 | RRIRRRPPRLPRPRPRPATLPRP | 0.332
125 | RRIRLRPPRLPRPRPRPAQGPRP | 0.376

Row | Sequence | shrunken log2 fold change
126 | RRIRTRPPRLPRPRPRPLLGPRP | -0.185
127 | RRIRYRPPRLPRPRPRPCHHPRP | -0.12
128 | RRIRGRPPRLPRPRPRPDDNPRP | 0.484
129 | RRIRYRPPRLPRPRPRPDWSPRP | -0.522
130 | RRIRLRPPRLPRPRPRPYMTPRP | -0.82
131 | RRIRKRPPRLPRPRPRPCIHPRP | -0.124
132 | RRIRTRPPRLPRPRPRPFGGPRP | -0.0397
133 | RRIRLRPPRLPRPRPRPILLPRP | -0.235
134 | RRIRGRPPRLPRPRPRPAFIPRP | -0.177
135 | RRIRTRPPRLPRPRPRPSTNPRP | -0.488
136 | RRIRHRPPRLPRPRPRPGKKPRP | -0.0335
137 | RRIRQRPPRLPRPRPRPPSKPRP | 0.353
138 | RRIRCRPPRLPRPRPRPDETPRP | -0.0127
139 | RRIRNRPPRLPRPRPRPCEQPRP | -0.00776
140 | RRIRPRPPRLPRPRPRPMGVPRP | 0.0399
141 | RRIRMRPPRLPRPRPRPCSKPRP | -0.00101
142 | RRIRPRPPRLPRPRPRPITRPRP | 0.31
143 | RRIRERPPRLPRPRPRPKLAPRP | 0.00329
144 | RRIRIRPPRLPRPRPRPCFWPRP | -0.22
145 | RRIRKRPPRLPRPRPRPMWGPRP | -0.0954
146 | RRIRQRPPRLPRPRPRPGFSPRP | 0.00737
147 | RRIRERPPRLPRPRPRPNCIPRP | -0.712
148 | RRIRDRPPRLPRPRPRPYSKPRP | 0.0519
149 | RRIRIRPPRLPRPRPRPRWRPRP | 0.267
150 | RRIRFRPPRLPRPRPRPKTGPRP | 0.072
